Reference: the supplement of paper PMC7877785
± gives the uncertainty stated by the source.

Assay: self-splicing fitness, log relative to wild type (ln ratio); higher = more splicing; Tetrahymena group I intron in knt gene, E. coli kanamycin selection, DiMSum; sequences stand for … in CUCUCU…GGAGGGAAAAGUUAUCAGGCAUGCACCUGGUAGCUAGUCUUUAAACCAAUAGAUUGCAUCGGUUUAAAAGGCAAGACCGUCAAAUUGCGGGAAAGGGGUCAACAGCCGUUCAGUACCAAGUCUCAGGGGAAACUUUGAGAUGGCCUUGCAAAGGGUAUGGUAAUAAGCUGACGGACAUGGUCCUAACCACGCAGCCAAGUCCUAAGUCAACAGAUCUUCUGUUGAUAUGGAUGCAGUUCACAGACUAAAUGUCGGUCGGGGAAGAUGUAUUCUUCUCAUAAGAUAUAGUCGGACCUCUCCUUAAUGGGAGCUAGCGGAUGAAGUGAUGCAACACUGGAGCCGCUGGGAACUAAUUUGUAUGCGAAAGUAUAUUGAUUAGUUUUGGAGUACUCGUGGUCG
In short: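 Fitness was computed with DiMSum as the error-weighted combination of replicate fold changes, kanamycin versus none, each normalised to wild type. The library randomised all eight intron nucleotides of the P1ex region, with the intron placed in the knt kanamycin-resistance gene on pET-22b(+) in E. coli BL21(DE3). Six replicate transformations were grown overnight at 37°C or 30°C on LB agar with or without 25 μg/mL kanamycin, plus 100 μg/mL carbenicillin, 50 μM IPTG and 0.2% rhamnose. Pooled colonies were amplicon-sequenced on an Illumina HiSeq 2500.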

Sequence | self-splicing fitness (ln) (30 °C) | self-splicing fitness (ln) (37 °C)
ACUAAGCAAUAUUACGCCCG | -0.735 ± 0.14 | 0.678 ± 0.19
ACUAAGCAAUAUUACGCCGG | -1.03 ± 0.11 | -0.877 ± 0.18
ACUAAGCAAUAUUACGCGGA | -1.96 ± 0.094 | -0.956 ± 0.083
ACUAAGCAAUAUUACGCUCA | -0.894 ± 0.12 | -0.989 ± 0.14
ACUAAGCAAUAUUACGCUCC | -1.24 ± 0.096 | -0.322 ± 0.13
ACUAAGCAAUAUUACGGAGU | -3.72 ± 0.23 | -3.11 ± 0.21
ACUAAGCAAUAUUACGGCCA | -0.942 ± 0.13 | 0.00289 ± 0.13
ACUAAGCAAUAUUACGGUUG | -3.25 ± 0.2 | -2.5 ± 0.21
ACUAAGCAAUAUUACGUACU | 0.135 ± 0.084 | 0.635 ± 0.12
ACUAAGCAAUAUUACGUAUC | -2.91 ± 0.15 | -2.15 ± 0.19
ACUAAGCAAUAUUACGUCAU | -3.64 ± 0.16 | -2.28 ± 0.15
ACUAAGCAAUAUUACGUCUA | -1.45 ± 0.13 | -0.981 ± 0.12
ACUAAGCAAUAUUACGUUUA | -3.27 ± 0.17 | -2.48 ± 0.14
ACUAAGCAAUAUUACGUUUG | -3.62 ± 0.18 | -2.22 ± 0.17
ACUCAGCAAUAUUACGAAUU | -0.96 ± 0.089 | -0.208 ± 0.085
ACUCAGCAAUAUUACGACAC | -1.44 ± 0.12 | -0.127 ± 0.14
ACUCAGCAAUAUUACGAGAU | -2.56 ± 0.11 | -1.81 ± 0.11
ACUCAGCAAUAUUACGAGGG | -1.85 ± 0.08 | -1.41 ± 0.1
ACUCAGCAAUAUUACGAUAU | -1.1 ± 0.081 | -0.759 ± 0.11
ACUCAGCAAUAUUACGCCUU | -0.619 ± 0.053 | 0.491 ± 0.067
ACUCAGCAAUAUUACGCGAA | -1.48 ± 0.061 | -0.686 ± 0.069
ACUCAGCAAUAUUACGCGCG | -1.21 ± 0.12 | -0.47 ± 0.11
ACUCAGCAAUAUUACGCGUA | -0.747 ± 0.11 | -0.395 ± 0.11
ACUCAGCAAUAUUACGCGUC | -3.42 ± 0.19 | -2.06 ± 0.25

Sequence | self-splicing fitness (ln) (30 °C) | self-splicing fitness (ln) (37 °C)
ACUCAGCAAUAUUACGCUAC | -3.42 ± 0.27 | -2.63 ± 0.23
ACUCAGCAAUAUUACGCUAU | -1.9 ± 0.061 | -0.569 ± 0.07
ACUCAGCAAUAUUACGCUCC | -0.601 ± 0.12 | -0.848 ± 0.16
ACUCAGCAAUAUUACGGAGA | -0.941 ± 0.12 | -0.997 ± 0.13
ACUCAGCAAUAUUACGGAUU | -0.597 ± 0.055 | 0.0271 ± 0.076
ACUCAGCAAUAUUACGGGAC | -2.72 ± 0.17 | -1.6 ± 0.23
ACUCAGCAAUAUUACGGGAU | -1.32 ± 0.056 | -0.522 ± 0.076
ACUCAGCAAUAUUACGGGCC | -1.32 ± 0.092 | -1.13 ± 0.11
ACUCAGCAAUAUUACGGGUA | -1.57 ± 0.099 | -0.922 ± 0.083
ACUCAGCAAUAUUACGGUUC | -2.68 ± 0.14 | -2.33 ± 0.14
ACUCAGCAAUAUUACGGUUU | -0.62 ± 0.048 | -0.291 ± 0.057
ACUCAGCAAUAUUACGUAAG | -0.973 ± 0.052 | -0.421 ± 0.078
ACUCAGCAAUAUUACGUAAU | -0.934 ± 0.057 | -0.31 ± 0.076
ACUCAGCAAUAUUACGUACC | -1.39 ± 0.09 | 0.482 ± 0.13
ACUCAGCAAUAUUACGUAUG | -3.11 ± 0.24 | -1.35 ± 0.16
ACUCAGCAAUAUUACGUCCC | -0.969 ± 0.13 | -0.71 ± 0.16
ACUCAGCAAUAUUACGUCCG | -2.16 ± 0.14 | -1.21 ± 0.15
ACUCAGCAAUAUUACGUGAU | -1 ± 0.064 | -0.627 ± 0.078
ACUCAGCAAUAUUACGUGCG | -0.485 ± 0.063 | -0.526 ± 0.078
ACUCAGCAAUAUUACGUUAG | -2.98 ± 0.13 | -0.675 ± 0.11
ACUGAGCAAUAUUACGAAGU | -3.93 ± 0.3 | -3.03 ± 0.31
ACUGAGCAAUAUUACGAGGA | -2.63 ± 0.23 | -1.83 ± 0.17
ACUGAGCAAUAUUACGAUCA | -2.89 ± 0.43 | -2.9 ± 0.34
ACUGAGCAAUAUUACGAUCG | -1.65 ± 0.15 | -1.99 ± 0.21

Sequence | self-splicing fitness (ln) (30 °C) | self-splicing fitness (ln) (37 °C)
ACUGAGCAAUAUUACGAUCU | -1.28 ± 0.12 | -0.653 ± 0.1
ACUGAGCAAUAUUACGAUUG |  | -3.25 ± 0.37
ACUGAGCAAUAUUACGCAAU | -2.79 ± 0.28 | -2.03 ± 0.27
ACUGAGCAAUAUUACGCAUC | -2.22 ± 0.24 | -2.08 ± 0.24
ACUGAGCAAUAUUACGCCCG | -2.15 ± 0.25 | -0.509 ± 0.22
ACUGAGCAAUAUUACGCGAC | -2.51 ± 0.43 | -1.46 ± 0.29
ACUGAGCAAUAUUACGCUGU | -3.42 ± 0.28 | -1.7 ± 0.25
ACUGAGCAAUAUUACGGACG | -2.2 ± 0.13 | -1.9 ± 0.2
ACUGAGCAAUAUUACGGCGU | -1.07 ± 0.079 | 0.0319 ± 0.097
ACUGAGCAAUAUUACGGGCA | -2.07 ± 0.14 | -1.08 ± 0.14
ACUGAGCAAUAUUACGUAGU | -3.48 ± 0.19 | -2.41 ± 0.25
ACUGAGCAAUAUUACGUCCC | -3.06 ± 0.39 | 
ACUGAGCAAUAUUACGUCGG | -2.82 ± 0.16 | -2.47 ± 0.21
ACUGAGCAAUAUUACGUGAU | -3.6 ± 0.14 | -1.76 ± 0.097
ACUUAGCAAUAUUACGAAAG | -2.69 ± 0.19 | -0.697 ± 0.17
ACUUAGCAAUAUUACGAAGU | -3.91 ± 0.22 | -1.61 ± 0.19
ACUUAGCAAUAUUACGAAUG | -2.24 ± 0.11 | -1.13 ± 0.12
ACUUAGCAAUAUUACGACGA | -0.777 ± 0.089 | -0.322 ± 0.088
ACUUAGCAAUAUUACGAGAA | -2.06 ± 0.29 | -2.07 ± 0.23
ACUUAGCAAUAUUACGAGGC | -3.25 ± 0.5 | 
ACUUAGCAAUAUUACGAUCA | -1.45 ± 0.14 | -0.47 ± 0.13
ACUUAGCAAUAUUACGCACG | -1.55 ± 0.1 | -0.683 ± 0.13
ACUUAGCAAUAUUACGCAUC | -2.69 ± 0.19 | -1.64 ± 0.2
ACUUAGCAAUAUUACGCCAG | -2.16 ± 0.15 | -0.941 ± 0.17

Sequence | self-splicing fitness (ln) (30 °C) | self-splicing fitness (ln) (37 °C)
ACUUAGCAAUAUUACGCGGU | -3.26 ± 0.41 | -1.84 ± 0.26
ACUUAGCAAUAUUACGCUGC | -3.82 ± 0.32 | -2.36 ± 0.22
ACUUAGCAAUAUUACGCUGU | -3.85 ± 0.2 | -2.19 ± 0.17
ACUUAGCAAUAUUACGGAUG | -1.73 ± 0.13 | -1.53 ± 0.2
ACUUAGCAAUAUUACGGGCA | -1.04 ± 0.091 | 0.0835 ± 0.096
ACUUAGCAAUAUUACGGUAU | -3.18 ± 0.12 | -2.5 ± 0.13
ACUUAGCAAUAUUACGGUGU | -2.79 ± 0.11 | -1.64 ± 0.097
ACUUAGCAAUAUUACGUACU | -0.497 ± 0.094 | -0.384 ± 0.1
ACUUAGCAAUAUUACGUAGG | -1.25 ± 0.079 | -1.12 ± 0.11
ACUUAGCAAUAUUACGUAUC | -3.56 ± 0.22 | -2.37 ± 0.24
ACUUAGCAAUAUUACGUCCU | -0.527 ± 0.085 | -0.132 ± 0.13
ACUUAGCAAUAUUACGUUAG | -2.09 ± 0.09 | -1.5 ± 0.12
AGAAAGCAAUAUUACGAAUA | -2.51 ± 0.17 | -0.949 ± 0.14
AGAAAGCAAUAUUACGACGC | -0.72 ± 0.11 | -0.219 ± 0.14
AGAAAGCAAUAUUACGAGAC | -2.65 ± 0.3 | -2.13 ± 0.47
AGAAAGCAAUAUUACGAUAC | -1.78 ± 0.14 | -1.54 ± 0.19
AGAAAGCAAUAUUACGAUCC | -0.604 ± 0.07 | 0.0529 ± 0.11
AGAAAGCAAUAUUACGAUGU | -0.998 ± 0.063 | -0.229 ± 0.083
AGAAAGCAAUAUUACGCAAU | -2.18 ± 0.072 | -0.965 ± 0.075
AGAAAGCAAUAUUACGCCAC |  | -2.07 ± 0.41
AGAAAGCAAUAUUACGCUGA | -3.08 ± 0.21 | -0.267 ± 0.15
AGAAAGCAAUAUUACGGCGU | 0.239 ± 0.073 | 0.133 ± 0.091
AGAAAGCAAUAUUACGGCUC | -1.28 ± 0.091 | -0.338 ± 0.12
AGAAAGCAAUAUUACGGGAA | -2.72 ± 0.13 | -1.73 ± 0.12
